{
  "source": "the DeepSol protein solubility set",
  "data": [
    {"assay": "soluble on expression in E. coli; label from the status in PepcDB or PDB records", "values": [
      {"sequence": "MKPTTRSASKRANAESSGVNQPEKKSRIPETEIVEDPLEIEVPPASADGTDNKSFSENEYDDDHSSSSDEESDDEYVVETHKSSMVDAAESSEGERPDERIVRELEQKIARGLKNDRILKKKKKALDGEVSDTEDVVCEYEPQAMPKQRRRRLYRRKMTRPQGVPKRRRIKRPDLELADDYTCDTFAEQGLTLKSLTSDIKQDDPEVDWKAMRRMGIGIRSTKRDEINSDEDEADIISHSFSFYQTRNSKEQVAQAVELNMNPFSEKIASYNAPKSVHGYSRSSIQNQHSGFIDKNDIKYPDELLWQEPFTHLVFFQSTFNAHESSIKFLNNVANSKKQERDSKLMKEIRERIKQKSLGHVDVPIDYTNVESTSEQPSTIDQYSLPDLTSQCDEGTIKEEEDFDYLMVDAEF", "soluble on expression in E. coli": "not soluble"},
      {"sequence": "MKQRPIPRPQTDTTAALQALADALACLRNSATVLAFLRDLCTPAELEALADRWRVVPLLLQGRPYRDIHDHTGISVTTIGRVARCLEHGTGGYAAVLQAQAMPPASSIEKPQ", "soluble on expression in E. coli": "not soluble"},
      {"sequence": "MKRESVLFQAARKHHLNLLFPLFRANTSASYPVSRFISRPITVLSKGFAKGFFCIKKETVDKIQQFFFDKWAIEERRYHQLLSILLPGLKNGNLASVEQYLGAKRIEAYAAVPYVAGRWELDDASLPQGAVVVLTCEGVLYSWETYRLERYISAAMANDRISGVVLFVNGPGGMITRVDVLEKLIRQSPKPIVAYITGVCASAHFWFVSACARRFVSSPMDEIGSCGVVYTFQSFKEYYAQMGIEIEDIYPDSADLKNRAYRDKEEKQDDTLIKENLSFYHHLFAQTIARNLGVKYDAQDPLFRGQTFFADTALAKGYVDAYGSLEDAILWVSAQKTVKRANKMILEHHHHHH", "soluble on expression in E. coli": "not soluble"},
      {"sequence": "MKRIQEIQQNLERLAEMDEHLEQCEEWNVVAQEIVQKLSTIRKEVERSAAPTPLLLTPPGSCGSGSIYSDISSEMTNVYTEAVEAYDQQIYSRCVRLVEGANRESPVDMCLISLAHHSYAEMVNAASGSDDAMKFAKWWAEFLDSVEAGRGHSEKIELLDYEAVAYEKIVKLGGVADVEKLIEVVVRSYEMVTLLNRPYHILSLQKLFRLTNVLSSSEVDLESDAFSSAKTVVLTGIQNVLRDRKKFAQLGKFNEHNMKIAMRRTAQPDFRVRYCEKR", "soluble on expression in E. coli": "soluble"},
      {"sequence": "MKRRKQSRRWRGKKYAPVMIGMLVLLMNLADLKISNLISGSIICQAAERQSENTETENNSGGTEKEKITQTEASTVSDILEELDLSRVQRMLDQMLGEESFSMKDMLDGLIKGEKVLSEDTVQEMVHSFLFSGLEKEKS", "soluble on expression in E. coli": "not soluble"},
      {"sequence": "MKRSAFFISDGTGITAETLGQSLLAQFENITFNKFTRPYIDSVEKARAMVQQINNAADKDDVRPIIFDTIVNQDIREILATSNGFMIDIFSTFLAPLEQELSSHSSYSVGKSHSIGHNSNYMERIEAVNFALDNDDGARTHYYDKADIILVGVSRCGKTPTCLYMAMQFGIRAANYPLTEDDMERLQLPPALKQHREKLFGLTIDPDRLTAIRHERKPNSRYSSYAQCEFEVREVESLFRRENIPNINSTHFSVEEISAKVLVEKGVERRFKLEHHHHHH", "soluble on expression in E. coli": "not soluble"},
      {"sequence": "MKSHKMMGGGISMHYITACLKIISDKDLNEIMKEFKKLEEETNKEEGCITFHAYPLEPSERKIMLWEIWENEEAVKIHFTKKHTIDVQKQELTEVEWLMKSNVND", "soluble on expression in E. coli": "soluble"},
      {"sequence": "MKSLIIVNPADCIGCRTCEVACVVAHPSEQELNADVFLPRLKVQRLDSISAPVMCHQCENAPCVGACPVGALTMGEQVVQTNSARCIGCQSCVSACPFGMITIQSLPGDTRQQIVKCDLCEQREEGPACVESCPTQALQLLTERELRRVRQQRIVASGENPL", "soluble on expression in E. coli": "not soluble"},
      {"sequence": "MKTAIVTDSTAYLPKEVRERLGIRLIPLSVIFGNETYREEIDMTADEFFAKIKQHPTLPTTSQPSVGEFVDLFTAIREEGYEAVVSIHLSSGISGTYQGAVTAGTMVDGLRVYAYDSEISCMAQGFYAIEAAEMAQAGRSPEDIIARLDEMKQTLRAYFMVDDLAHLQRGGRLTGAQAFIGGLLQIKPLLRFENKVIVPFEKIRTRKKAIHRIEELFAEDAEKGVPLKAAIIHANQPDEAHRWRDELSARYPHVEFSISYFGPVIATHVGEGALGLTWYQP", "soluble on expression in E. coli": "soluble"},
      {"sequence": "MKTAQEFRAGQVANINGAPWVIQKAEFNKSGRNAAVVKMKLKNLLTGAGTETVFKADDKLEPIILDRKEVTYSYFADPLYVFMDSEFNQYEIEKDDLEGVLTFIEDGMTDICEAVFYNDKVISVELPTTIVRQIAYTEPAVRGDTSGKVMKTARLNNGAELQVSAFCEIGDSIEIDTRTGEYKSRVKA", "soluble on expression in E. coli": "not soluble"},
      {"sequence": "MKTFESLFAELSEKAQTRPEGSLTVDELDKGTHFIGKKIIEEAGETWMAAEYEGADRTAEEMSQLLYHVQVMMIKHGLTLEDVYKHL", "soluble on expression in E. coli": "soluble"},
      {"sequence": "MKTIEEIKSTPKTVMKKPELLAPAGNLEKLKIAVHYGADAVFLGGQEYGLRSNADNFTMEEIAEGVEFANRYGAKIYVTTNIIAHDENIEGLESYLRNLEKTGATGIIVADPLIIETCKEVAPKLEIHLSTQQSLSNYKAVEYWKEEGLDRVVLARETGAMEMREMKEKVDIEIEAFIHGAMCIAYSGRCTLSNHMTARDSNRGGCCQSCRWDYELLEVDDNGELDVFYNQGEVTPFAMSPKDLKLIESIPQMMDIGVDSLKIEGRMKSIHYIATVVSVYRKVIDAYAADPDNFKINPEWLIELDKCANRDTAPAFFEGTPGYEEQMFGQQQSKKSSFDFCGLVLDYNEDTKIATIQQRNNFKPGQEIEFFGPEIETFTQVVEAIYDEEGNSLDAARHPLQIVQIKVDRPIYPNNMMRKEIG", "soluble on expression in E. coli": "not soluble"},
      {"sequence": "MKTIGLIGGMSWESTTSYYQLINETIKKELGGLHSAKILLYSVDFAEIEHYQASDDWAKSAEVLSQIAQKLEQAGADFIVICTNTMHKVAPQIQKQIAIPILHIAQATAEAILENGIQKV", "soluble on expression in E. coli": "not soluble"},
      {"sequence": "MKTKSPALSGKLTDTELRTLRIFMAVVHYSGFTPAALELNVSRSAVSIAMADLEKRLSLRLCERGRAGFSLTTEGREVYRSTRQLFSALDQFRIQINAIHFNLKGELNIGITDNLVTMPQMRITSALRELNRLGPDVQINIQMIPPNEIISGVLDGQLHTGVIPVQKHYEGLEYLLLYEERSSLYCGQEHELFCRHDSELSPSMLKQYNGVLPAYDQTSEIKALHHELQLSASATDREGVAFLILTGRYIGYLPDHYAHRWVKEGVMRAILPANMSYLTPFATITKKGAPSNLVLENYLEQLKLASTTAGG", "soluble on expression in E. coli": "not soluble"},
      {"sequence": "MKTKVICLVRVSTQDQDYQRQISDLTKYSQARDFVIVDFISEKVSGTKRNEERNGIQELLKRARKKEFQKVIVQEISRLGRNPFQVQRVIEELAELSISVVVQNMNLETLDEGGNRNGFIDLMLSTAVHFSSIERSWIVNRIRSGQKNSKKKIGRPFNTFESKEAVLKKYAAVVRDLKSGISIRKVAKLNDLSTPTIQRVKKLMQEL", "soluble on expression in E. coli": "not soluble"},
      {"sequence": "MKTLLPTSTAGSLPKPSWLAEPEKLWSPWKLQGEELIDGKRDALRVALQEQELAGVDIVSDGEQTRQHFVTTFIEHLSGVDFENRKTVTIRNRYEASVPTVVGPVSRTKPVFVEDAKFLRQQTKQPIKWALPGPMTMIDTLYDDHYGSREKLAWEFAKILNQEAKELEAAGVDIIQFDEPAFNVFFDDVNEWGIACLERAIEGLKCETAVHICYGYGIKANTDWKQTLGTEWRQYEEVFPKLQQSNIDIISLECHNSRVPIELLELIRGKKVMVGAIDVATNEIETPEEVANTLREALKYVDADKLYPCTNCGMAPLSREVSTAKLNALSAGAEIVRRELSALEHHHHHH", "soluble on expression in E. coli": "not soluble"},
      {"sequence": "MKTLSTMATLLALSLPVMAQECASDIMRTAPNLRYVYSTQGTVKDLHTGLTWMRCTFGKEWNAEQGRCTGQAQPLRWQAALQEVQAINHPGSRHRLHQFAGVKQWRMPNIKELSSLTEQACFAPAANETAFASGLVTEVGNYAAYLWSNTTRIEREEAWTWDAINGEIYAYSIHAHEMGLLLVADELEHHHHHH", "soluble on expression in E. coli": "soluble"},
      {"sequence": "MKTRTQQIEELQKEWTQPRWEGITRPYSAEDVVKLRGSVNPECTLAQLGAAKMWRLLHGESKKGYINSLGALTGGQALQQAKAGIEAVYLSGWQVAADANLAASMYPDQSLYPANSVPAVVERINNTFRRADQIQWSAGIEPGDPRYVDYFLPIVADAEAGFGGVLNAFELMKAMIEAGAAAVHFEDQLASVKKCGHMGGKVLVPTQEAIQKLVAARLCADVTGVPTLLVARTDADAADLITSDCDPYDSEFITGERTSEGFFRTHAGIEQAISRGLAYAPYADLVWCETSTPDLELARRFAQAIHAKYPGKLLAYNCSPSFNWQKNLDDKTIASFQQQLSDMGYKFQFITLAGIHSMWFNMFDLANAYAQGEGMKHYVEKVQQPEFAAAKDGYTFVSHQQEVGTGYFDKVTTIIQGGTSSVTALTGSTEESQF", "soluble on expression in E. coli": "soluble"},
      {"sequence": "MKVAAKKLATSRMRKDRAAAASPSSDIENSENPSSLASHSSSSGRMTPSKNTRSRKGVSVKDVSNHKITEFFQVRRSNRKTSKQISDEAKHALRDTVLKGTNERLLEVYKDVVKGRGIRTKVNFEKGDFVVEYRGVMMEYSEAKVIEEQYSNDEEIGSYMYFFEHNNKKWCIDATKESPWKGRLINHSVLRPNLKTKVVEIDGSHHLILVARRQIAQGEELLYDYGDRSAETIAKNPWLVNT", "soluble on expression in E. coli": "not soluble"},
      {"sequence": "MKVAVLGATGKEGQLLLAEAKRRGMDVTAIVRNASKITDGTPTIEKDVYQLTTEDIQAFDVLISALGFPDVQDFPKSTQHLIEILTNQKTRLFVVGGAGTLYVDPEHTTQLKDTPSFPAEIQPLASAMGEALNLLKEAQNIHWTYISPAAMFDADGPATGHYEVAGEELTTNSQGDSYISYADYAVAMLDEVESNAHPNQRISVYQLEHHHHHH", "soluble on expression in E. coli": "soluble"},
      {"sequence": "MKVDGRRPEDEVIRETNAHGVSVVHIKKDPTTQKVEIVKNSIFNRRITASTVMEFAGAAAGSSLLATRFSPAGRQTRGTHNNCGNGYTPWGTYLTTEENFIGYFQRSGSDEYARTDAEKIALKRYGLGVKKDEPYLYEKDEKGAPKKDKDGKIIYLKDKNGELIPNVDEQGRQIYLGTSSRYGWETAIGQVESQDLYDRWNADVKAAQATQDYRNGPNTFGWMVEIDPFDGRQNPVKRTSLGRFAHEDSACRAVVGQPLAFYMGDDSRGEYIYKFVSTAVWDTKDINGGYTAGDKYMNAGKLYVAKFNNDGSGQWIELAYGKNGLNESNTTYPFKSQADVVTFARLAADSVGATKMDRPEWCTVNPVNGEIYVTLTNNSNRGKDYATDAANPRNYTDLYAGTKEQKGNVNGHIIRFKETDDKTTAETFKWDIYLFGAEASMASNINLSGLTDNNDFSSPDGMWFDPRGVLWIETDDGAYTDVTNCMMLAALPGQIGDGGTATTSNGQQTITGAKVTDATLRRFLVGPKQCEITGIAMTPDYKAIFINVQHPGEDSPSYAKPESNWPATQKDPSNKTARPRSATVVITRKDGGVIAGLEHHHHHH", "soluble on expression in E. coli": "soluble"},
      {"sequence": "MKVDVDEKTYIITMANDITKLYEENKRNLHYSITDPLTGAYNRKYLNDRFDIFIGDYIVLIDLDNFKMINDYEGHNVGDKILCDFVSLLNKELINSTSIIRLGGDEFIVIFSSDVDKNYVYSQLEALRENFLKVFSKYKYLSFSYGVDTVKRNLKLTIVELDKKMYKNKEKLEHHHHHH", "soluble on expression in E. coli": "not soluble"},
      {"sequence": "MKVEEQYLQLFRENREAIDSHSPRVLNEQREKASMAFASKGLPRYGTENYQRTDLSELFGYDYGVNLNRVNFPIRQKEAFHCTLPDLDTDLCYIVNDAYDNEWSRVSELPEGAFVGSLSDFALSHPEIAARYYAQAAAPDHDGIIAFSTMFAQDGFIIYLPDGAVLKNPIQLVQLLRADMEIL", "soluble on expression in E. coli": "not soluble"}
    ]}
  ]
}
